Molecular target: HIV-1 gp120 (HIV-1)
Assay: ELISA, coated gp120; binding relative to scytovirin

“SD2 (residues 49-95 of scytovirin with a substitution of serine at position 55) (peptide)” gave a percent binding in comparison to scytovirin of 50%.

Reference: patent US20080311125A1
